According to PMC8210614, “IRDye800CW labeled uPAR-targeting peptide for fluorescence-guided glioblastoma surgery: Preclinical studies in orthotopic xenografts” (Theranostics, 2021):
Non-standard residues stand in square brackets, D forms with d. Primed or numbered codes have the meaning given here. Cha = N[C@@H](CC1CCCCC1)C(=O)O; IRDye800CW′ = not defined here; AEEA = NCCOCCOCC(=O)O

Key:
[1] = not given; remark: listed apart in the source
[2] = not given; remark: listed apart in the source
[3] = not given; remark: listed apart in the source
orthotopic PDX GBM = assay type: in vivo, nude mice; conditions: IRDye800CW-AE344 6 nmol i.v. 3 h before surgery; 5-ALA 0.25 mg/g oral 4-5 h before; NIR surgery followed 5-ALA surgery; 2 animals each
glioma = conditions: cited from earlier work
Excerpt: Gliolan®, the brand name of 5-ALA, was approved for clinical use for GBM resection in Europe in 2007 and by the FDA in 2017. After oral administration, it is metabolized inside the tumor cells into protoporphyrin IX that is fluorescent with an emission peak at 635 nm. […] Further, the frequency of the most common early severe adverse events (hemiparesis, aphasia, convulsions, and epidural hematoma) was 11 of 139 pati ... || GBM as a high-grade glioma is characterized by alterations of the normal brain vasculature resulting in a disrupted leaky BBB [47] manifested on MRI with tumor contrast-enhancement. However, the highly invasive nature of GBM causes single cell invasion into otherwise healthy tissue and proliferation of cells in areas outside of the disrupted BBB region, usually in areas not showing contrast-enhancement on MRI [48]. In contrast, the vasculature and BBB function in low-grade gliomas remains virtually unaltered and intact with normal function. As a consequence, the BBB in both high-grade and ...

uPAR-expressing tumors = conditions: cited from earlier work; for time of maximal TBR: previous probes
Experimental: Compared to our previous probes, ICG-2Glu-AE105 and CH1055-4Glu-AE105, we improved several features. Importantly, the route of excretion changed from liver to kidneys leading to improved pharmacokinetics with faster excretion. Maximal TBR decreased from 15 h and 96 h of ICG-Glu-Glu-AE105 and CH1055-4Glu-AE105, respectively to 3 h with the current new probe.

[4] = Ex vivo plasma stability, murine plasma; assay type: in vitro ADME; conditions: mouse, 37 °C in dark, 2.4 nmol in 1,600 ul plasma, acetonitrile precipitation, HPLC fluorescence detection ex 774/em 798 nm, normalized to 0 h, read-out: intact probe (normalized AUC on HPLC)
Experimental: (§1) For plasma stability 1,600 ul human and murine plasma were separately incubated with 2.4 nmol IRDye800CW-AE344 in 10 ul PBS at 37 °C in dark. 200 ul samples were collected at 0, 0.5, 1, 2, 3, 6, 12 and 24 h. Plasma proteins were precipitated by addition of 200 ul acetonitrile and the samples were centrifuged at 10,000 G for 10 min. The supernatant was collected for analysis. The supernatant from time zero from both the human and mouse serum was analyzed to establish the retention time of the intact IRDye800CW-AE344 on HPLC-MS on a RSLC Dionex Ultimate 3000 (Thermo) instrument coupled to a Bruker QTOF Impact HD II. The column was an Aeris widepore 3.6 µm C4 column (150 × 4.6 mm, Phenomenex) and the solvent system was solvent A: water containing 0.1% Formic acid; solvent B: acetonitrile containing 0.1% formic acid. Method: 0-1 min 5% solvent B, 1-18min 5%-50% solvent B with a flowrate of 1 mL/min. […] All samples were then run using the settings above and the AUC at the 14 min peak was used to calculate the degradation with 0 h for both murine and human plasma as the reference.

[5] = Ex vivo plasma stability, human plasma; assay type: in vitro ADME; conditions: 37 °C in dark, 2.4 nmol in 1,600 ul plasma, acetonitrile precipitation, HPLC fluorescence detection ex 774/em 798 nm, normalized to 0 h, read-out: intact probe (normalized AUC on HPLC)
Experimental: as §1

[6] = Biodistribution by organ fluorescence imaging; assay type: in vivo, nude mice; conditions: 3 nmol, 1 h post injection
Experimental: Biodistribution was assessed in animals (n=2) receiving 3 nmol IRDye800CW-AE344 and was euthanized after 1 h for organ dissection and imaging (exposure time: 333 ms). Due to renal excretion, the fluorescence signals in the kidneys were out of scale compared to all the other organs.

liver and kidneys = test: Acute toxicity, liver and kidney histology; assay type: in vivo, nude mice; conditions: 24 h post injection of 12 nmol, 5 animals
Experimental: Acute toxicity was evaluated on the liver and kidneys from 5 animals 24 h post injection of 12 nmol IRDye800CW-AE344.
Liver and kidney tissue was formalin fixed and paraffin embedded. Sections of 2-4 um thick were cut and a routine staining panel applied including: H&E, modified sirius, PAS and Masson trichome for both and additional PAS with silver for kidneys and PAS with diastase, iron, reticulin artisan and oxidized orcein for the livers. Livers were immunohistochemically stained, immunohistochemical evaluation on 3 µm thick sections was done using the CK7 antibody from Dako/Agilent, GA619 (clone OV-TL12/30) following the manufacturer's instructions. The staining took place on the Omnis from Agilent utilizing the EnVision Flex+ detection kit (GV800). The primary antibody was diluted using Antibody Diluent (Dako DM830) and were incubated for 20 min. The sections were counterstained with hematoxylin.

[7] = system: 3D blood-brain barrier (BBB) spheroids; test: Uptake into 3D blood-brain barrier spheroids; assay type: in vitro ADME, human; conditions: 25 µM, overnight incubation 37 °C/5% CO2, confocal, slice 97 µm inside spheroid, three independent experiments; p = 0.0229
Experimental: All cell lines were incubated at 37 °C/5% CO2.
Blood-brain-barrier spheroid assembly and uptake assays: Blood-brain barrier (BBB) spheroids were assembled as previously described [54]. Briefly, 50 µL of 1% agarose (w/v) in Milli-Q water is added to each well of low-binding 96 well plates (Thermo Fisher Scientific) and allowed to cool prior to the addition of cells. Confluent astrocytes, pericytes and hCMEC/D3 were lifted with 0.025% trypsin and resuspended in BBB-working media (Vasculife-Mv with VEGF omitted and 2% normal human serum). 1x10^3 of each cell type is added sequentially to give a total volume of 100 µL per well. BBB-working media was added to each well to a final volume of 200 µL per well. Astrocytes were used between passage 2 and 4, pericytes between passage 4 and 6, and hCMEC/D3 between passages 29 and 30. […]
The following day, spheroids (10 per treatment condition) were pooled by group into low-binding Eppendorf tubes (1.5 mL, Thermo Fisher Scientific) using 0.1% Triton X-100 treated pipette tips and washed 3 times with sterile PBS. […] The extent of uptake into the spheroids was determined by capturing Z-stacks of each spheroid and measuring the integrated density of a region of interest 50µm from the outer boundary of the spheroid using a slice that corresponds to 97µm inside the spheroid [54]. […]

[8] = molecular target: T1, urokinase-type Plasminogen Activator Receptor (uPAR) (UniProt Q03405 23-305); test: SPR; competition in solution, Biacore 3000: pro-uPA S356A immobilised on a CM5 chip (>5000 RU, mass transport limited); 2 nM uPAR incubated with a 3-fold dilution series of peptide (0.076 nM to 1.5 uM), 300 sec, 20 °C, 50 uL/min; 10 mM HEPES, 150 mM NaCl, 3 mM EDTA, 0.05% P20, pH 7.4; conditions: both partners purified
[9] = molecular target: T1, urokinase-type Plasminogen Activator …; test: cell-based or functional assay

T1 sequence (Q03405 23-305): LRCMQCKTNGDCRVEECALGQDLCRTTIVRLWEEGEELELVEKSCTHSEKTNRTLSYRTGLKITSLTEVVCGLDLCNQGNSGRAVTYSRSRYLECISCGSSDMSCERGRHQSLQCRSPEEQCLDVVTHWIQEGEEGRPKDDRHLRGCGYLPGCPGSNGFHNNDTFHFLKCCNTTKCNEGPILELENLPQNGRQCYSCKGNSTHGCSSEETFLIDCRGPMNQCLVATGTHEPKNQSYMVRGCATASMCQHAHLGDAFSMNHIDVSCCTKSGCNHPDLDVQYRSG

## CC(C)C[C@H](NC(=O)[C@H](Cc1ccc(O)cc1)NC(=O)[C@@H](CCCNC(=N)N)NC(=O)[C@@H](CO)NC(=O)[C@H](Cc1ccccc1)NC(=O)[C@H](CC1CCCCC1)NC(=O)[C@H](CC(=O)O)NC(=O)COCCOCCNC(=O)COCCOCCNC(=O)[C@H](CCC(=O)O)NC(=O)[C@H](CCC(=O)O)NC(=O)CCCCC[N+]1=C(/C=C/C2=C(Oc3ccc(S(=O)(=O)O)cc3)C(=C/C=C3/N(CCCCS(=O)(=O)[O-])c4ccc(S(=O)(=O)O)cc4C3(C)C)/CCC2)C(C)(C)c2cc(S(=O)(=O)O)ccc21)C(=O)N[C@@H](Cc1c[nH]c2ccccc12)C(=O)N[C@@H](CO)C(=O)O
other
  Stokes shift: 10 nm
[1]
  emission peak λemis,max: 794 nm
[2]
  excitation peak λexcit,max: 784 nm
[3]
  absorption maximum λabs,max: 777 nm

## NCC(=O)CCC(=O)O [5-ALA]
Orthotopic PDX GBM
  postoperative residual tumor on histology after guided surgery: clearly showed residual tumor
glioma
  low-grade gliomas showing visible fluorescence: approximately 20%
glioma; hemiparesis, aphasia, convulsions, epidural hematoma, WL group 4 of 131
  frequency of the most common early severe adverse events: 11 of 139
glioma; phase III clinical trial, 5-ALA vs WL surgery (36% with WL)
  rate of complete resection of the tumor: 65%

## ICG-Glu-Glu-AE105 [previous fluorescently labeled uPAR probe with ICG]
uPAR-expressing tumors
  TBR of previous probes: 3.5
  time of maximal TBR: 15 h

## CH1055-Glu-Glu-Glu-Glu-AE105 [CH1055-4Glu-AE105, previous uPAR probe with NIR-II fluorophore CH1055]
uPAR-expressing tumors
  TBR of previous probes: 2.7
  time of maximal TBR: 96 h

## CC(C)C[C@H](NC(=O)[C@H](Cc1ccc(O)cc1)NC(=O)[C@@H](CCCNC(=N)N)NC(=O)[C@@H](CO)NC(=O)[C@H](Cc1ccccc1)NC(=O)[C@H](CC1CCCCC1)NC(=O)[C@H](CC(=O)O)NC(=O)COCCOCCNC(=O)COCCOCCNC(=O)[C@H](CCC(=O)O)NC(=O)[C@H](CCC(=O)O)NC(=O)CCCCC[N+]1=C(/C=C/C2=C(Oc3ccc(S(=O)(=O)O)cc3)C(=C/C=C3/N(CCCCS(=O)(=O)O)c4ccc(S(=O)(=O)O)cc4C3(C)C)/CCC2)C(C)(C)c2cc(S(=O)(=O)[O-])ccc21)C(=O)N[C@@H](Cc1c[nH]c2ccccc12)C(=O)N[C@@H](CO)C(=O)O [IRDye800CW-AE344]
[4]; 6 h
  remaining at 6 h, 1.5 µM: 73%
[4]; 12 h
  remaining at 12 h, 1.5 µM: 67%
[5]
  remaining at 6 h: 61%
[6]; n=2, exposure time 333 ms
  MFI in liver: 88 a.u.
  MFI in lungs: 101 a.u.
  MFI in normal brain tissue: 19 a.u.
  MFI in skin: 99 a.u.
[6]; n=2, acquired at 40 ms and extrapolated to 333 ms
  MFI in kidneys: 1,236 a.u.
Liver and kidneys
  kidney histology: normal with preserved glomeruli and tubules without atrophy, inflammation, or fibrosis
  liver histology: normal with lobular configuration without inflammation, fibrosis, cholestasis or deposits
[7]
  fold change in relative fluorescence units (RFU) compared to untreated spheroids: 5.3 fold

B1: AE105 (peptide)
chain: DAFSRYLWS
modifications: 9-mer; residue 2 Cha (cyclohexylalanine), residue 4 D-Ser, residue 5 D-Arg; C-terminal free acid. Sequence not printed: taken from the core of the related antagonist peptide AE147 in 1YWH, with D-Arg
[8]
  IC50: 7.8 nM

## {IRDye800CW′}-EE[AEEA][AEEA]D[Cha]F[dS][dR]YLWS-OH (also: X3-X4: OEG2 linker between Glu-Glu and AE105) [IRDye800CW-AE344]
[9]
  normalized tumor-to-background ratio (TBR), NIR imaging of cross sectioned brains with orthotopic GBM in mice, 3 nmol IRDye800CW-AE344 (active), 1 h: 6.6
  normalized tumor-to-background ratio (TBR), NIR imaging of orthotopic GBM in mice, 3 nmol IRDye800CW-AE344 blocked by co-administered AE120 (the dimer version of the AE105), 1 h: 4.6
[8]
  IC50: 20 nM
